Measurements: US20130129725A1 (Amgen, published 2013)

B1: 1A2-Rm26 (bispecific antibody, human IgG1, kappa, N297Q, V domains shown)
VH: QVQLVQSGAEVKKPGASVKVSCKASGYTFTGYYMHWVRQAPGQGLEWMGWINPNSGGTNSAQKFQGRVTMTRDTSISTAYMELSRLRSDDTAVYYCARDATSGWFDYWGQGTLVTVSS
VL: DIVMTQTPLSSPVTLGQPASISCRSSQSLVYSDGNTYLSWLQQRPGQPPRLLIYKISNRFSGVPDRFSGSGAGTDFTLKISRVEADDVGIYYCMQAIEFPWTFGQGTQVEIKR
notes: also called H1-Rm26
B2: 2G10-Rm26 (bispecific antibody, human IgG1, lambda, N297Q)
heavy: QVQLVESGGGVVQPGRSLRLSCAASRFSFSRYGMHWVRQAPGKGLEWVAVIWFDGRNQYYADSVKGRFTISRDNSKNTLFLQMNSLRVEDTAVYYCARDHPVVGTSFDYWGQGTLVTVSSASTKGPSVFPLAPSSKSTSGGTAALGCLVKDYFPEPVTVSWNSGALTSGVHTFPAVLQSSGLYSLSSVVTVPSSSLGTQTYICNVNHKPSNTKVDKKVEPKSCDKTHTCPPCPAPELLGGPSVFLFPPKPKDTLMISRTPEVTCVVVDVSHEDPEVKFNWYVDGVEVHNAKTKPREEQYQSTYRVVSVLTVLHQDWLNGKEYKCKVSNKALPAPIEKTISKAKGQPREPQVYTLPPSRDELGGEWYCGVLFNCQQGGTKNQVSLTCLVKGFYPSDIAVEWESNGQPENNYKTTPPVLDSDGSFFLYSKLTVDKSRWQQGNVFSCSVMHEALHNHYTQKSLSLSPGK
light: QSVLTQPPSVSAAPGQKVTVSCSGSSSNIGNNYVSWYQQLPGTAPKLLIYDNNKRPSGIPDRFSGSKSGTSATLGITGLQTGDEAEYYCGTWDSSLSVVAFGGGTKLTVLGQPKANPTVTLFPPSSEELQANKATLVCLISDFYPGAVTVAWKADGSPVKAGVETTKPSKQSNNKYAASSYLSLTPEQWKSHRSYSCQVTHEGSTVEKTVAPTECS
notes: also called H2-Rm26
B3: 2G10-Rm40 (bispecific antibody, human IgG1, lambda, N297Q)
heavy: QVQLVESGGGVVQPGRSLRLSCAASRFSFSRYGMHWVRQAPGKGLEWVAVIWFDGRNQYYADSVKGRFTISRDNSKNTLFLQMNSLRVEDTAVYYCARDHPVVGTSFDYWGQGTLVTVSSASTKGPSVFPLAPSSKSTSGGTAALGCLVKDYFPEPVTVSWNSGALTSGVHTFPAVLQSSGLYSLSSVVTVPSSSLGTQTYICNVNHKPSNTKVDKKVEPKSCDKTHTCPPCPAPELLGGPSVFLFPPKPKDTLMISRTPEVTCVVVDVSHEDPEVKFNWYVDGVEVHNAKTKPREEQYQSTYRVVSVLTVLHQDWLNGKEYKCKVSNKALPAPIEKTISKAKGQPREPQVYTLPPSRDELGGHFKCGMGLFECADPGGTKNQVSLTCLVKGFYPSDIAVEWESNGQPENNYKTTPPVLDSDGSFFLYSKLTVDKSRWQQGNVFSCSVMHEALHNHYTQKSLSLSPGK
light: B2 light
notes: also called H2-Rm40

Tests used:
hu-FGFR1c-His [1] = target: T1, hu-FGFR1c-His (human, UniProt P11362 22-376); assay: ELISA (Example 10), antigen on plate, anti-hu-Fc-HRP detection (FIG. 13)
T1 construct: also called human FGFR1c; not shown: His tag
T1 sequence: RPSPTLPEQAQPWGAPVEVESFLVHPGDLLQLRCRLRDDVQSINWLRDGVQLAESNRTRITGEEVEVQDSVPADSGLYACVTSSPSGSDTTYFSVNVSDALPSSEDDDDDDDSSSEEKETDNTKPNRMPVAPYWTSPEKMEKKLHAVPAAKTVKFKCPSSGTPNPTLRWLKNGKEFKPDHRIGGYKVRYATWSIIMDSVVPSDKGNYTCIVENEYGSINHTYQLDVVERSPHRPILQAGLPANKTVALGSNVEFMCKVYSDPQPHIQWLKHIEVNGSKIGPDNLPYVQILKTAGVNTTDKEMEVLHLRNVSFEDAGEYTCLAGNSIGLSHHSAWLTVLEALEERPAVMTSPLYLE
Experimental: Biotin-hu-β-Klotho-His, biotin-mu-βKlotho-His, hu-FGFR1c-His, and mu-FGFR1c-Fc were expressed and purified. Anti-Fc-HRP was purchased from Thermo Fisher Scientific (Rockford, Ill.). Neutravidin 96 well plates (Thermo Fisher Scientific; Rockford, Ill.) were coated with 2 μg/ml biotin-hu-β-Klotho-His or biotin-mu-β-Klotho-His in PBS (Invitrogen; Carlsbad, Calif.). Maxisorp 96 well plates (Thermo Fisher Scientific; Rockford, Ill.) were coated with 2 μg/ml hu-FGFR1c-His or mu-FGFR1c-Fc in PBS. Plates were then incubated at 4° C. overnight. Plates were blocked in 2% milk-PBS at room temperature for 1 hour. Each well was then incubated 1 hour with samples diluted in 2% milk-PBS. Plates were washed 3 times with 300 μl PBS/0.1% Tween20 (Invitrogen; Carlsbad, Calif. and Sigma-Aldrich; St. Louis, Mo.). Anti-hu-Fc-HRP was diluted 1:10000 in 2% milk-PBS and added to each well. Plates were again washed 3 times with 300 μl PBS/0.1% Tween20. Lumiglo reagent (KPL; Gaithersburg, Md.) was added and luminescence was measured (Perkin Elmer; Waltham, Mass.).

hu-FGFR1c-His [2] = target: T1, hu-FGFR1c-His; assay: ELISA (Example 10), antigen on plate (FIG. 13)

Row | Binder | binding result (hu-FGFR1c-His [1]) | binding result (hu-FGFR1c-His [2])
1 | B1 | binds | –
2 | B2 | binds | –
3 | B3 | binds | –
4 | EWYCGVLFNCQQ [Rm26] | – | binds
5 | HFKCGMGLFECADP [Rm40] | – | binds
6 | YQAWGYYV [SR4] | – | binds
